Data taken from patent US7247441B2, “Nucleic acid sequence and protein in addition to polypeptides coding for mannitol dehydrogenases or parts thereof and the production and use thereof in diagnosis and therapy” (Biomay Produktions- Und Handels-Aktienge Sellschaft, priority 2002, dated 2007).

B1: native purified MtDH: major allergen of Cladosporium herbarum, a NADP-dependent mannitol dehydrogenase, 29 kD, seq. ID No. 8 (protein, listed as Cladosporium herbarum)
chain: MPGQQATKHESLLDQLSLKGKVVVVTGASGPKGMGIEAARGCAEMGAAVAITYASRAQGAEENVKELEKTYGIKAKAYKCQVDSYESCEKLVKDVVADFGQIDAFIANAGATADSGILDGSVEAWNHVVQVDLNGTFHCAKAVGHHFKERGTGSLVITASMSGHIANFPQEQTSYNVAKAGCIHMARSLANEWRDFARVNSISPGYIDTGLSDFVPKETQQLWHSMIPMGRDGLAKELKGAYVYFASDASTYTTGADLLIDGGYTTR
B2: protein prepared in accordance with example 10: recombinantly produced Alternaria alternata mannitol dehydrogenase, seq. ID No. 11, purified over a nickel chelate column, approximately 30 kD (protein, listed as Alternaria alternata)
chain: MPITVPQATELKDLFSLKGKVVIVTGASGPTGIGTEAARGCAEYGADLAITYNSRAEGAEKNAKEMSEKYGVKVKAYKCQVNEYAQCEKLVQDVIKDFGKVDVFIANAGKTADNGILDATVEQWNEVIQTDLTGTFNCARAVGLHFRERKTGSLVITSSMSGHIANFPQEQASYNVAKAGCIHLAKSLANEWRDFARVNSISPGYIDTGLSDFVPQDIQKLWHSMIPMGRDAKATELKGAYVYFASDASSYCTGSDLLIDGGYCVR

Columns and labels:
IgE of patients' sera = assay: IgE immunoblots of Cladosporium herbarum crude extract with sera from 62 patients; type: binding, human; details: sera from 62 patients preselected in skin test or RAST, positive to Cladosporium herbarum extract
Procedure: For the purposes of the present invention, IgE immunoblots of Cladosporium herbarum crude extract were assayed with sera from 62 patients. An immunoreactive protein of molecular weight 29 kD, which was recognized by 61% of the patients' sera, was identified. […] No other allergen in the Cladosporium herbarum extract reacted with such a high percentage of patients' sera. It is therefore assumed that this protein is the major allergen of Cladosporium herbarum.

[1] = Two-dimensional separation by isoelectric focusing and SDS-PAGE; type: physicochemical
From the text: (§1) Native purified MtDH was separated under denaturing conditions in an isoelectric focusing (O'Farrel P H, J. Biol. Chem., 1975; 250:4007–21) according to the net charge (isoelectric point) of the protein. Thereafter, the protein separated thus was subjected to SDS gel electrophoresis (Laemmli U K, Nature, 1970; 27:680–5), whereby a separation by molecular weight took place in addition. The protein was transferred to a PVDF membrane in a Western blot (Towbin H et al., Proc. Natl. Acad. Sci. USA, 1979; 76:4350–4). After free binding sites had been saturated (30 minutes in blocking buffer: 50 mM sodium phosphate pH 7.5, 0.5% Tween 20, 0.5% BSA, 0.05% NaN3), the membrane was incubated with patients' serum (1:10 diluted in blocking buffer). Then, the membrane was washed (with blocking buffer, 3×10 minutes) to remove unspecifically bound antibodies. Specifically bound IgE-Ab were detected with the aid of an ^125I-labeled rabbit anti-human IgE antibody. After the membrane had been exposed to an X-ray film, the results were available: […]

[2] = target: T1, Cladosporium herbarum mannitol dehydrogenase (Cladosporium herbarum, UniProt P0C0Y5); assay: Enzyme activity determination, absorption of NADPH at 340 nm; type: biochemical
T1 construct: the enzyme activity was determined with the traditionally purified protein; from tissue; host or cells: Cladosporium herbarum extract (ammonium sulfate precipitation, HIC, anion exchange)
Procedure: The experiments reveal that the highly purified major allergen of Cladosporium herbarum is indeed a mannitol dehydrogenase which catalyzes the following metabolic reaction: Fructose+NADPH+H^+ ? mannitol+NADP^+. […] The method of the activity determination is described in example 3.
To confirm the results according to the invention, the enzyme activity was determined with the traditionally purified protein. The absorption of NADPH was measured in a photometer at 340 nm.
• 50 mM Tris-HCl, pH 7.5 • 0.25 mM NADPH or NADH • D-fructose or fructose-6-phosphate (0.1; 0.2; 0.4; 0.6; 0.8; 1.0; 1.2 M) • H2O to 1 ml • the reaction is started with 0.5 μl of MtDH Results: • Reaction with fructose and NADPH • No reaction with fructose-6-phosphate and NADH

[3] = tested on: IgE antibodies of C. herbarum allergy sufferers; assay: IgE immune blot of the native purified MtDH after separation in the SDS gel; type: binding, human
Procedure: The protein was purified to homogeneity in a conventional method (example 1). The yield amounted to 1 mg.
Native purified MtDH was separated by molecular weight in a reducing SDS gel (Laemmli U K, Nature, 1970; 27:680–5). Subsequently, the protein was transferred onto a PVDF membrane in a Western blot (Towbin H et al., Proc. Natl. Acad. Sci USA, 1979; 76:4350–4). After free binding sites had been saturated (30 minutes in blocking buffer: 50 mM sodium phosphate pH 7.5, 0.5% Tween 20, 0.5% BSA, 0.05% NaN3), the membrane was incubated with patients' serum (1:10 diluted in blocking buffer). Then, the membrane was washed (with blocking buffer, 3×10 minutes) to remove unspecifically bound antibodies. Specifically bound IgE-Ab were detected with the aid of an ^125I-labeled rabbit anti-human IgE antibody. After the membrane had been exposed to an X-ray film, the result was available.

[4] = tested on: IgE antibodies of C. herbarum allergy sufferers; assay: IgE immune blot of the native purified MtDH after 2-dimensional separation; type: binding; details: patients' serum 1:10, 125I-labeled anti-human IgE
From the text: as §1

[5] = tested on: IgE of sera of Alternaria alternata-sensitized patients; assay: IgE immune blot of recombinant Alternaria alternata mannitol dehydrogenase with the sera of 28 patients; type: binding, human
From the text: The following procedure was chosen for purifying the recombinantly produced protein, which is provided with a poly-His fragment at the C terminus: the E. coli cells with the expression vector, which express the foreign protein, the Alternaria alternata mannitol dehydrogenase, were first lysed in the customary manner. […] The inclusion bodies formed by overexpression of the foreign protein were first solubilized in a buffer with 6-molar urea and subsequently purified by affinity chromatography over a nickel chelate column. The recombinantly produced mannitol dehydrogenase was applied in 6 M urea buffer. Imidazole buffer was employed for the elution. The protein-comprising fractions were subsequently purified further by preparative SDS-PAGE gel electrophoresis and analyzed, during which process it emerged that the allergen was already purified to virtually complete homogeneity.
The protein prepared in accordance with example 10 was separated by gel electrophoresis and tested in an IgE immune blot with the sera of 28 patients. All of the 28 sera originated from patients who had shown a positive response to the Alternaria alternata crude extract and who had been pretested both in a skin test and in an RAST. A pronounced band was visible in the immune blot in the case of 9 of the patients' sera tested. This corresponds to approximately 32% of the Alternaria alternata-sensitized patients.

Row | Molecule | patients' sera recognizing the protein (IgE of patients' sera) [%] | isoelectric point [1] | enzyme reaction ([2]; with fructose and NADPH) | enzyme reaction ([2]; with fructose-6-phosphate and NADH) | reaction with IgE antibodies of C. herbarum allergy sufferers ([3]; SDS gel, patients' serum 1:10, 125I-labeled anti-human IgE) | result in the IgE immunoblot ([3]; pool of six patients) | reaction with IgE antibodies of C. herbarum allergy sufferers [4] | share of Alternaria alternata-sensitized patients with a pronounced band ([5]; 28 sera) | patients' sera with a pronounced band in the immune blot ([5]; of 28 sera positive to Alternaria alternata crude extract)
1 | B1 | 61 | 5.8 | Reaction | No reaction | reacts specifically | highly positive | reacts specifically |  | 
2 | B2 |  |  |  |  |  |  |  | approximately 32% | 9
